Experimental findings from the nanobody polyreactivity screen of Harvey et al. (2022) are described below.

This data set can be described thus: yeast display, Sf9 membrane polyspecificity reagent, FACS + sequencing; frameworks hold sequencing errors. In short, it runs like this:
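After 36–48 hours of galactose induction, yeast (Saccharomyces cerevisiae BJ5465) displaying a synthetic nanobody library were stained at 4 °C for 1 hour with 10% biotinylated, detergent-solubilized Sf9 membrane reagent. Streptavidin microbeads enriched the stained cells before FACS sorting into low and high (top ~1%) gates on anti-HA and streptavidin fluorescence. Each clone's polyreactivity label reflects its gate of origin.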
For the sequence “QVQLVESGGGLVQAGGSLRLSCAASGIIFTGNAMGWYIQAPGKERELVAAITSGDTTNYADSVKGRFTISRDNAKNTVYLQMNSLKPEDTAVYYCAKELQVRQAGDYWGQGTQVTVSS”, the “polyreactivity (PSR sort gate)” value is “low polyreactivity”. With “QVQLVESGGGLVQAGGSLRLSCAASGIIFTGNAMGWYRQAPGKERELVAAITSGDTTNYADSVKGRFTISRDNAKNTVYLQMNSLKPEDTAVYFCAIELQVRQAGDYWGQGTQVTVSS” the entry was “low polyreactivity”; with “QVQLVESGGGLVQAGGSLRLSCAASGIIFTQYAMGLYRQAPGKERELVAAISGSGGRTYYADSVKGRFTISRDIAKNTVYLQMNSLKPEDTAVYYCAARYARYGNDYWGQGTQVTVSS”, “high polyreactivity”. With “QVQLVESGGGLVQAGGSLRLSCAASGIIFTRNAMGWYRPAPGKERELVAASSRSGGSTYYADSVKGRFTISRDNAKNTVYLQMNSLKPEDTAVYDGAAAWSEYPYDYWGQGTQVTVSS” the entry was “low polyreactivity”. With “QVQLVESGGGLVQAGGSLRLSCAASGIIFTRYAMGWYRQAPGKERELVAAITRNGVSTYYADSVKGRFTISRDNAKNSVYLQMNSLKPEDTAVYYCNTYVLRRYAYGYWGQGTQVTVSS” the entry was “high polyreactivity”. Regarding “QVQLVESGGGLVQAGGSLRLSCAASGIIFTRYVMGWYRQAPGKERELVATIRIGGSTTYADSVKGRFTISRDNAKNTVYLQMNSLKPEDTAVYYCAADTWYITTYGGAGSYAYGFYYWGQGTQVTVSS”, the “polyreactivity (PSR sort gate)” value was “low polyreactivity”. With “QVQLVESGGGLVQAGGSLRLSCAASGIIFTSNTMGWYRPAPGKEREFVASINWNGSSTYADSVKGRFTISRDNAKNTVYLQMYSLKPDDTAVYYCNADSNRNSVQFSLYDYWGQGTQVTVSS” the entry was “low polyreactivity”; with “QVQLVESGGGLVQAGGSLRLSCAASGIIFTSYAMGWYRQAPGKERELVAVITGTGGITYYADSVKGRFTISRDNAKNTVYLQMNSLKPEDTAVYYCAAELELREYDYWGQGTQVTVSS”, “high polyreactivity”. “QVQLVESGGGLVQAGGSLRLSCAASGIIFTTNAMGWYRQAPGKERELVATITSGGGTYYADSVKGRFTISRDNAKNTVYLQMNSLKPVDTAVYYCAATPGWGPWIFDHSYVDFDYWGQGTQVTVSS”: the “polyreactivity (PSR sort gate)” value is listed as “low polyreactivity”.

For the sequence “QVQLVESGGGLVQAGGSLRLSCAASGIIFTWYAMGWYRQAPGKERELVAAITSGNTYYADSVKGRFTISRDNAKNTVYLQMNSLKPEDTAVYYCNAVYSYTDEYDYWGQGTQVTVSS”, the “polyreactivity (PSR sort gate)” value is “high polyreactivity”.

Turning to “QVQLVESGGGLVQAGGSLRLSCAASGIIFTYNAMGWSRQAPGKERELVAAISWRGGSTYYADSVKGRFTISRDNAKNTVYLQMNSLKPEDTAVYYCARYGTDHRLGYGYWGQGTQVTVSS”, the “polyreactivity (PSR sort gate)” value was “low polyreactivity”. For the sequence “QVQLVESGGGLVQAGGSLRLSCAASGIIFTYNTMGWYRQAPGKERELVAAINYSGGSTYYADSVKGRFTISRDNAKNTVYLQMNSLKPEDTAVYYCAAPYRRKARGFQQSFDYWGQVTQVTVSS”, the “polyreactivity (PSR sort gate)” value is “high polyreactivity”. For “QVQLVESGGGLVQAGGSLRLSCAASGIIFTYYAMGSYRQAPGKERELVAAISSRGDSTYYADSVKGRCTISRDNAKNTVSLQLNSLKTEDTAVYYCNRYLSRPLRAMYYWGIGTQVTVSS” the value was “high polyreactivity”; for “QVQLVESGGGLVQAGGSLRLSCAASGIIFTYYAMGWYRQAPGKERELVAAISYRGGSTNYADSVKGRFTISRDNAKNTVYLQMNSLKPEDTAVYYCAAKSYWKRFRVLYDYWGQGTQVTVSS”, “high polyreactivity”; for “QVQLVESGGGLVQAGGSLRLSCAASGIIFTYYAMGWYRQAPGKERELVAAITSSAGSTYYADSVKGRFTISRDNAKNTVYLQMNSLKPVDTAVYYCAAYSVYYYQGDDYWGQGTQVTVSS”, “high polyreactivity”.

In the case of “QVQLVESGGGLVQAGGSLRLSCAASGIIFTYYAMGWYRQAPGKERELVADIDWSGDGTYYADSVKGRFTISRDNAKNTVYLQMNSLKPEDTAVYYCAAEGTETYYVFYDQPEITLYDYWGQGTQVTVSS”, the “polyreactivity (PSR sort gate)” value is listed as “low polyreactivity”. For “QVQLVESGGGLVQAGGSLRLSCAASGIIFVAYARGWYRQAPGKERELVAAITWGGGRTYYADSVKGRFTISRDNAKNTVYLQMNSLKPEDTAVYYCAAVVWYDPRATYVYWGQGTQVTVSS” the value was “low polyreactivity”; for “QVQLVESGGGLVQAGGSLRLSCAASGIIFVINAMGWYRQAPGKERELVATITGSGTTNYADSVKGRFTISRDNAKNTVYLQMNSLKPEDTAVYYCARDDTEYARTGAYDYWGQGTQVTVSS”, “low polyreactivity”; for “QVQLVESGGGLVQAGGSLRLSCAASGIIFVSYMGWYRQAPGKERELVAAIRWSGGRTYYADAVKGRFTISRDNAKNTVYLQMNSLKPEDTAVYYCNKRVYYSRDVTSRVGRYDFWGQGTQVTVSS”, “high polyreactivity”. For “QVQLVESGGGLVQAGGSLRLSCAASGIIFWAYALGWYRQAPGKERELVAVISRGGSTNYADSVKGPFTISRDNAKNTVYLQMNSLKPEDTAVYYCAARYGWGQGTQVTVSS” the value was “high polyreactivity”; for “QVQLVESGGGLVQAGGSLRLSCAASGIIFWRHVMGWYRQAPGKERELVATISTRGGNTYYADSVKGRFTISRDNAKNTVYLQMNSVKPEDTAVYYCAAGKNGYTYSRSYSYGYWGQGTQVTVSS”, “high polyreactivity”; for “QVQLVESGGGLVQAGGSLRLSCAASGIIFWRYAMGWYRQAPGKERELVAAIRYRAGSTYYADSVKGRFTISRDNAKNTVYLQLNSLKPEDTAVYYCAAGWWTSPDRRGGDYWGQGTQVTVSS”, “high polyreactivity”.

Take “QVQLVESGGGLVQAGGSLRLSCAASGIIFWVNAMGWYRQAHGKETELVAAITISGVSTYYADSVKGRFTISRDNAKNTVYLQMNSLKPEDTAVYYCAKDPTFSSSFAVSLGFDSWGQGTQVTVSS”: the “polyreactivity (PSR sort gate)” value is listed as “low polyreactivity”.

Regarding “QVQLVESGGGLVQAGGSLRLSCAASGIIFWWYAMGWYRQAPGKEMELVAAISGTGGSTYYADSVKGRFTISRDNAKNTVYLQMNSLKPEDTAFYYCAARGKSSSYYDYDYWGQGTQVTVSS”, the “polyreactivity (PSR sort gate)” value is given as “low polyreactivity”.

As to “QVQLVESGGGLVQAGGSLRLSCAASGIIFWYYAMGWYRPAPGKERELVAAISSGGGTNYADSVKGRFTISRDNAKNTVYLQMNSLKPEDTAVYYCAVASGPELDYWGQGTQVTVSS”, the “polyreactivity (PSR sort gate)” value is “low polyreactivity”. For “QVQLVESGGGLVQAGGSLRLSCAASGIIFWYYAMGWYRQAPGIERELVAAISQSGGRTYYADSVKGRFTISRDNAKKTVYLQMNSLKPEDTAVYYCAAEPYTGYGYWGQGTQVTVSS” the value was “high polyreactivity”. For “QVQLVESGGGLVQAGGSLRLSCAASGIIFWYYAMGWYRQAPGKERELVAAISGSGGRTYYADSVKGRFTISRDNAKNTVYLQMNSLKPEDTAVYYCNALRAAFYHRARELDYWGQGTQVTVSS” the value was “high polyreactivity”. In the case of “QVQLVESGGGLVQAGGSLRLSCAASGIIFYAYAMGWYRQAPGKERELVARISRGGSTNYADSVKGRFTISRDNAKNTFYLQMNSLKPEDTAVYYCAAYYAYLRYGGLYEYWGQGTQVTVSS”, the “polyreactivity (PSR sort gate)” value is given as “high polyreactivity”. For “QVQLVESGGGLVQAGGSLRLSCAASGIIFYDYAMGWYRQAPGKERELVAAIDTGDSTYYADSVKGRFTISRDNAKKTVDLQMNSLKPEDTAVYYCAADYIFYTYIFYWGQGTQVTVSS” the value was “high polyreactivity”; for “QVQLVESGGGLVQAGGSLRLSCAASGIIFYDYAMGWYRQAPGKERELVAAISRSGGSTYYADSVKGRFTISRDNATNTVYLQMNSLKPEDTAVYYCNADEVVWGYNYWGQGTQVTVSS”, “low polyreactivity”. For “QVQLVESGGGLVQAGGSLRLSCAASGIIFYDYAMGWYRQAPGKERELVAAITSSGGSTYYADSVKGRFTISRDNAKNTVYLQMNSLKPEDTAVYYCAARTRSYWSTTYYYWGQGTQVTVSS” the value was “high polyreactivity”; for “QVQLVESGGGLVQAGGSLRLSCAASGIIFYDYVMGWYRQAPGKERELVTAISSNGGSTYYADSVKGRFTISRDNAKNTVYLQMNRLKPEDTAVYYCAAEGKSYPWPWYFDYWGQGTQVTVSS”, “high polyreactivity”; for “QVQLVESGGGLVQAGGSLRLSCAASGIIFYEYAMGWYRQAPGKERELVATITSGGSTNYADSVKGRFTISRDNAKNTVYLQMNSLKPEDTAVYYCNADWWWGYGYWGQGTQVTVSS”, “low polyreactivity”. For “QVQLVESGGGLVQAGGSLRLSCAASGIIFYEYAMGWYRQAPGKERELVAVITSGGTTNYADSVKGRFTISRDNAKNTVYLQMNSLKPEDTAVYYCAADVYWEFSPEYDYWGQGTQVTVSS” the value was “low polyreactivity”; for “QVQLVESGGGLVQAGGSLRLSCAASGIIFYEYVMGWYRQAPGKERELVAAISRSGGSTYYADSVKGRFTISRDNAKNTVYLQMNSLKPEDTAVYYCAVDAYRYWWTTYVSDFDYWGQGTQVTVSS”, “high polyreactivity”. For the sequence “QVQLVESGGGLVQAGGSLRLSCAASGIIFYFYTMGWYRQAPGKERELVAAISSSGGRTFYADSVKGRFTISRDNAKNTVYLQMNSLKPEDTAVYYCAAAHTREYYWGQGTQVTVSS”, the “polyreactivity (PSR sort gate)” value is given as “high polyreactivity”. With “QVQLVESGGGLVQAGGSLRLSCAASGIIFYGKAMGWYRQAPGKERELVAAITWSGGSTYYADSVKGRFTISRDNAKNTVYLQMNRLKPEDTAVYYCAALSGAHEHFVEYDYWGQGTQVTVSS” the entry was “low polyreactivity”; with “QVQLVESGGGLVQAGGSLRLSCAASGIIFYGNVMGWYRQAPGKERELVAGINSSGASTYYADSVKGRFTISRDNAKNTVYLQMNSLKPEDTAVYYCAARGPRVRLNSYYAGRYDYWGQGTQVTVSS”, “low polyreactivity”. Consider “QVQLVESGGGLVQAGGSLRLSCAASGIIFYGYAMGWYRQAPGKERELVAAIRWRGGSTYYADSVKGRFTISRDNAKNTVYLQMNSLKPADTAVYFCAADQTRYTSVFSSTRYDYWGQGTQVTVSS”, for which the “polyreactivity (PSR sort gate)” value was “low polyreactivity”. With “QVQLVESGGGLVQAGGSLRLSCAASGIIFYGYVMGWYRQAPGKERELVATITSSGGSTYYADSVKGRFTISRDNAKNTVYLQMNSLKPEDTGVYYCAADYYYGAWVRHDYWGQGTQVTLSS” the entry was “low polyreactivity”; with “QVQLVESGGGLVQAGGSLRLSCAASGIIFYHNAMGWYRQAPGKERELVASITEIGGSTYYADSVKGRFTISRDNAKNTVYLQMNSLKPEDTAVYYCAAGTLTSFSRYDYWGQGTQVTVSS”, “low polyreactivity”.
